Assay results as given in patent publication US20210032351A1 (XDCEXPLORER SHANGHAI, published 2021).

Tests used:
[1] = target: T1, human EGFR protein (wild-type), on cells (human, UniProt P00533 25-1210); assay: FACS on HFF-1, HFL-I, QSG-7701, HEEC, HEB, WPMY-1 and MCF-10A cells
T1 construct: whole, on cells; transfected on CHO-K1 cells; endogenous on the human cell lines; the cell is named under assay; also called wild-type EGFR; hEGFR

[2] = target: T2, human EGFRvIII-hFc protein (human, UniProt P00533 25-645); assay: ELISA, plate coated with human EGFRvIII-hFc, HRP secondary antibody, absorbance at 450 nm
T2 construct: extracellular domain; made in HEK293 cells, purified on protein A; also called immunogen A; hFc-tagged EGFRvIII protein; not shown: human IgG Fc fragment (hFc) of the pCpC vector
Description: The purified immunogen A (EGFRvIII-hFc) obtained in example 1 (for the preparation method, see step (I) in example 1) is diluted with PBS to a final concentration of 1.0 μg/mL, and then added to a 96-well ELISA plate at 100 μl/well. The plate is sealed with a plastic film and incubated at 4° C. overnight. The next day, the plate is washed twice with a plate washing solution [PBS+0.01% (v/v) Tween20], and added with a blocking solution [PBS+0.01% (v/v) Tween20+1% (w/w) BSA] for blocking 2 hours at room temperature. […] The plate is incubated for 2 hours at 37° C., and then washed 3 times with the plate washing solution [PBS+0.01% (v/v) Tween20]. The plate is added with an HRP (horseradish peroxidase) labeled secondary antibody (purchased from Sigma), incubated at 37° C. for 2 hours, and then washed 3 times with the plate washing solution [PBS+0.01% (v/v) Tween20]. The plate is added with 100 μl of TMB substrate/well, incubated for 30 minutes at room temperature, and then added with 100 μl of stopping solution (1.0N HCl)/well. A450 nm value is read using an ELISA plate reader (SpectraMax 384plus, purchased from Molecular Device), and the results are shown in FIG. 11 and table 19.

[3] = target: T3, human wild-type EGFR protein on the cell surface (human, UniProt P00533 25-1210); assay: FACS on A431 cells
T3 construct: whole, on cells; Endogenous on A431, HEB, U87MG cells and normal human primary hepatocytes; transfected on CHOk1-EGFR cells; The cell is named under assay; also called A431; HEB
Description: The cells are washed twice with the HBSS buffer and are counted, and then the cells are diluted with the HBSS buffer to 2×10⁶ cells/ml, added with 1% goat serum blocking solution, with the percentage being the mass percentage, and incubated on ice for 30 minutes, and then centrifugally washed twice with the HBSS buffer. The collected cells are suspended to 2×10⁶ cells/mL with an FACS buffer (HBSS+1% BSA, with the percentage being the mass percentage), added to a 96-well FACS reaction plate at 100 μL/well, then added with 100 μL/well of the purified EGFRvIII antibody (samples to be tested) obtained in example 2, and incubated on ice for 2 hours. The plate is centrifugally washed twice with the FACS buffer, added with 100 μL/well of a fluorescence (Alexa 488) labeled secondary antibody (purchased from Invitrogen), and then incubated on ice for 1 hour. […] The cells are suspended in 100 μL of the FACS buffer, and the results are detected and analyzed by FACS (FACS Calibur, purchased from BD). Data analysis is performed by using the software (CellQuest) to obtain the mean fluorescence intensity (MFI) of the cells. Data is further analyzed by using the software (GraphPad Prism5) to perform data fitting and calculate EC50. […]

[4] = target: T4, human EGFRvIII-hFc protein (human, UniProt P00533 25-645); assay: ELISA, EGFRvIII-hFc coated
T4 construct: extracellular domain; also called immunogen A; hFc-tagged EGFRvIII protein; not shown: human IgG Fc fragment (hFc) of the pCpC vector

[5] = target: T5, human EGFRvIII protein on the cell surface (human, UniProt P00533 25-1210); assay: FACS on U87MG-hEGFRvIII cells
T5 construct: whole, on cells; the cell line is named under assay; also called hEGFRvIII; U87MG-hEGFRvIII

Row | Binder | binding result [1] | EC50 (read off the curve) [2] [nM] | binding result [3] | OD450 nm at 0.0001 nM antibody [4] [OD450] | OD450 nm at 0.001 nM antibody [4] [OD450] | OD450 nm at 0.01 nM antibody [4] [OD450] | OD450 nm at 0.1 nM antibody [4] [OD450] | OD450 nm at 1 nM antibody [4] [OD450] | OD450 nm at 10 nM antibody [4] [OD450] | OD450 nm at 100 nM antibody [4] [OD450] | EC50 [5] [nM]
1 | Chimeric antibody 7E5 (antibody, human IgG1, V domains shown, also called 7E5-2A9 (chimeric)) VH: EIQLQQSGPELVKPGASVKVSCKASGYSFTDYNMYWVKQSHGKSLEWIGYVDPSNGGTNYNQKFKGKATLTVDKSSSTAFMHLNSLTSEDSAVYYCARGFFDYWGQGTTLTVSS VL: DIVMTQSPSSLTVTAGEKVTMSCKSSQSLLNSGNQKNYLTWYQQKPGQPPKLLIYWASNRESGVPDRFTGSGSGKDFTLTISSVQAEDLAVYYCQNDYRYPVTFGAGTKLELK | no binding | ~0.03 |  |  |  |  |  |  |  |  | 
2 | Chimeric antibody 7E5 (antibody, human IgG1, V domains shown, also called clone 7E5-2A9) VH: EIQLQQSGPELVKPGASVKVSCKASGYSFTDYNMYWVKQSHGKSLEWIGYVDPSNGGTNYNQKFKGKATLTVDKSSSTAFMHLNSLTSEDSAVYYCARGFFDYWGQGTTLTVSS VL: DIVMTQSPSSLTVTAGEKVTMSCKSSQSLLNSGNQKNYLTWYQQKPGQPPKLLIYWASNRESGVPDRFTGSGSGKDFTLTISSVQAEDLAVYYCQNDYRYPVTFGAGTKLELK |  |  | no binding | 0.09 | 0.08 | 0.19 | 1.18 | 3.45 | 3.63 | 3.6 | 1.9
